The assay concerns the target CD3/TCR complex on mouse T cells (mouse) (UniProt P22646). The assay is described as follows: cell-based or functional assay.

Data on one substance can be found in patent US20120269826A1.

UniProt P22646, sequence (P22646 22-189, chain 1 of 4): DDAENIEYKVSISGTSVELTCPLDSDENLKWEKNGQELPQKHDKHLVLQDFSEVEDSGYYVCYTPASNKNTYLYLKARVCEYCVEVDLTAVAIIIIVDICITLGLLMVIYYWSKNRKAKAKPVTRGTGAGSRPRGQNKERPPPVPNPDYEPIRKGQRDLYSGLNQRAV
UniProt P22646, sequence (P11942 23-182, chain 2 of 4, further chain): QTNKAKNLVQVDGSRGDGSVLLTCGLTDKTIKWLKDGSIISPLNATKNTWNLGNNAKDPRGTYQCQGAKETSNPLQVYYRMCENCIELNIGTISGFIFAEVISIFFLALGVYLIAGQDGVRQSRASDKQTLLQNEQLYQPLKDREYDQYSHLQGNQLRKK
UniProt P22646, sequence (P04235 22-173, chain 3 of 4, further chain): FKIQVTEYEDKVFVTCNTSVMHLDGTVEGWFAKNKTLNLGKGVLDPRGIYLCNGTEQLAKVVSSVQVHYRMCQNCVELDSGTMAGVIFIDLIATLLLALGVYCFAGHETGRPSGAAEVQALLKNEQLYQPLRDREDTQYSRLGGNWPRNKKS
UniProt P22646, sequence (P24161 22-164, chain 4 of 4, further chain): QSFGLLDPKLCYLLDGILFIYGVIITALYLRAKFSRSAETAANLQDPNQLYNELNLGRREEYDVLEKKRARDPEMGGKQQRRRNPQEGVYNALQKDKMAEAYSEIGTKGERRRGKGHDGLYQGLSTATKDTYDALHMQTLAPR

On to “anti-CD3 mAb F(ab′)2 (hamster anti-mouse CD3 mAb, clone 145-2C11)”, for which the CD3/TCR-complex expression 24 hr after dose 4, 5 µg dose, Study A (% of baseline) was found to be 50; the CD3/TCR-complex expression 24 hr after dose 4, 25 µg dose, Study A (% of baseline) came out at 12; the percentage of CD3/TCR-complex modulation after the fourth dose, 1 µg (4×/72 hr) dose regimen, BALB/c mice was 19.7%; the percentage of CD3/TCR-complex modulation after the fourth dose, 2 µg (4×/72 hr) dose regimen, BALB/c mice was found to be 30.3%.
